# According to publication PMC11005723, “Development of Complementary Photo‐arginine/lysine to Promote Discovery of Arg/Lys hPTMs Interactomes” (Advanced Science, 2024):
# Target: His‐DPF2PHD (residues 270–391) (UniProt Q92785)
# Assay: ITC; 25 °C, MicroCal PEAQ-ITC; protein in the cell titrated with 19 injections of peptide
# Sequence of His‐DPF2PHD (residues 270–391) (Q92785 270-391): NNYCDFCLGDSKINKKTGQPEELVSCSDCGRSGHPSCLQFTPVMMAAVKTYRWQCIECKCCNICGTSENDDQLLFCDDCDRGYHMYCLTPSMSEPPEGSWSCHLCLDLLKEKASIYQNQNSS
substance,measurement,value
native H3R2 peptide (H3_(1‐15) without diazirine and biotin),Kd,3.5 µM
